Measurements published in PMC5397160, “Insights into the RecQ helicase mechanism revealed by the structure of the helicase domain of human RECQL5”.

Columns and labels:
RECQL5 11-438 = RECQL5 11-438 (human, UniProt O94762 11-438); test: fluorescence polarization; shared Bmax fit; FP: 10 mM HEPES pH 7.5, 150 mM NaCl, 25 C, 10 nM FITC probe; no nucleotide or Mg stated; settings: protein: recombinant; tags: none (His tag cleaved with TEV); label: 5' fluorescein (FITC) on RQ-1; fork 1:2, 31 bp, RQ-1 5' arm 32 nt, RQ-3 3' arm 30 nt
Chain of RECQL5 11-438 (O94762 11-438): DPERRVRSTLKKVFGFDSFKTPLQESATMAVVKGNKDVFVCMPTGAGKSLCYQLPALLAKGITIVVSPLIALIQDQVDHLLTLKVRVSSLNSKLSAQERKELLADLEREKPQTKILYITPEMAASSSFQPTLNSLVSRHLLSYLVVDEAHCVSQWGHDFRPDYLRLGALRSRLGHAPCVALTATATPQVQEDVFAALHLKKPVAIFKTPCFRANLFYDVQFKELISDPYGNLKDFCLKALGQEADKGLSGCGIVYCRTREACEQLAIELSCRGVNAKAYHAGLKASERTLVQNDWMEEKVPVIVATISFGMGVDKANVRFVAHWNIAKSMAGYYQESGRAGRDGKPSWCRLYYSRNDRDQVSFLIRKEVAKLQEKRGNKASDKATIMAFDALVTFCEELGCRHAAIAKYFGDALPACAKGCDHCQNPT

RECQL5 11-526 R349A = RECQL5 11-526 R349A (human, UniProt O94762 11-526, R349A); test: fluorescence polarization; value marked * in table; FP: 10 mM HEPES pH 7.5, 150 mM NaCl, 25 C, 10 nM FITC probe; no nucleotide or Mg stated; settings: protein: recombinant; tags: none (His tag cleaved with TEV); label: 5' fluorescein (FITC) on RQ-1; fork 1:2, 31 bp, RQ-1 5' arm 32 nt, RQ-3 3' arm 30 nt
Chain of RECQL5 11-526 R349A (O94762 11-526 R349A): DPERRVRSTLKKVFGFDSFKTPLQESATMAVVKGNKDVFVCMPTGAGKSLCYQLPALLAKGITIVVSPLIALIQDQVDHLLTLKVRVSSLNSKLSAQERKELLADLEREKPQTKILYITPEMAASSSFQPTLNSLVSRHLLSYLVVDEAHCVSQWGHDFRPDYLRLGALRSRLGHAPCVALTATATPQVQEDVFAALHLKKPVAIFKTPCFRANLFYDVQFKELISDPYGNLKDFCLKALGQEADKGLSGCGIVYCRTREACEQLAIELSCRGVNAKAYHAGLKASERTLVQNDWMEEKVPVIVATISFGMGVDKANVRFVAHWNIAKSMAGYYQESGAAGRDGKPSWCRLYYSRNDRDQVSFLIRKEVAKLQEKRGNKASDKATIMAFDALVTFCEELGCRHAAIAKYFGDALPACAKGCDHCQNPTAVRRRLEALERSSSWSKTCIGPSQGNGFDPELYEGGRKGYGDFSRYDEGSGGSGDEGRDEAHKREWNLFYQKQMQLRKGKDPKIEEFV

RECQL5 11-526 H167A = RECQL5 11-526 H167A (human, UniProt O94762 11-526, H167A); test: fluorescence polarization; FP: 10 mM HEPES pH 7.5, 150 mM NaCl, 25 C, 10 nM FITC probe; no nucleotide or Mg stated; settings: protein: recombinant; tags: none (His tag cleaved with TEV); label: 5' fluorescein (FITC) on RQ-1; fork 1:2, 31 bp, RQ-1 5' arm 32 nt, RQ-3 3' arm 30 nt
Chain of RECQL5 11-526 H167A (O94762 11-526 H167A): as the sequence (O94762 11-526 R349A) above, with H157A, A339R counted along it

RECQL5 11-526 D168A = RECQL5 11-526 D168A (human, UniProt O94762 11-526, D168A); test: as above; settings: protein: recombinant; tags: none (His tag cleaved with TEV); label: 5' fluorescein (FITC) on RQ-1; fork 1:2, 31 bp, RQ-1 5' arm 32 nt, RQ-3 3' arm 30 nt
Chain of RECQL5 11-526 D168A (O94762 11-526 D168A): as the sequence (O94762 11-526 R349A) above, with D158A, A339R counted along it

RECQL5 11-526 R352G = RECQL5 11-526 R352G (human, UniProt O94762 11-526, R352G); test: as above; settings: protein: recombinant; tags: none (His tag cleaved with TEV); label: 5' fluorescein (FITC) on RQ-1; fork 1:2, 31 bp, RQ-1 5' arm 32 nt, RQ-3 3' arm 30 nt
Chain of RECQL5 11-526 R352G (O94762 11-526 R352G): as the sequence (O94762 11-526 R349A) above, with A339R, R342G counted along it

RECQL5 11-526 = RECQL5 11-526 (human, UniProt O94762 11-526); test: as above; settings: protein: recombinant; tags: none (His tag cleaved with TEV); label: 5' fluorescein (FITC) on RQ-1; fork 1:2, 31 bp, RQ-1 5' arm 32 nt, RQ-3 3' arm 30 nt
Chain of RECQL5 11-526 (O94762 11-526): as the sequence (O94762 11-526 R349A) above, with A339R counted along it

RECQL5 11-453 = RECQL5 11-453 (human, UniProt O94762 11-453); test: as above; settings: protein: recombinant; tags: none (His tag cleaved with TEV); label: 5' fluorescein (FITC) on RQ-1; fork 1:2, 31 bp, RQ-1 5' arm 32 nt, RQ-3 3' arm 30 nt
Chain of RECQL5 11-453 (O94762 11-453): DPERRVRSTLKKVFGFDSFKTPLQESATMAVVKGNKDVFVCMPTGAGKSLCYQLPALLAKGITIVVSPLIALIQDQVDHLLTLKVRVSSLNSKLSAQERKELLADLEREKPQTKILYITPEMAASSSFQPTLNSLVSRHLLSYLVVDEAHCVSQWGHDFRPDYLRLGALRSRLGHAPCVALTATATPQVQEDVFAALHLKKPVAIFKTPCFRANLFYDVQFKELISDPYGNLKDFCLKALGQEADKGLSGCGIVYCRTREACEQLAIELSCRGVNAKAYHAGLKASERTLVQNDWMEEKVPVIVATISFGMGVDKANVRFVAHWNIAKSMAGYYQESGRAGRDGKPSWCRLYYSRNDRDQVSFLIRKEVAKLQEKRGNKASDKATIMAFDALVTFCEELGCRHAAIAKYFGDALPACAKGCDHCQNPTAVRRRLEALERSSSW

RECQL5 11-526 Q345A = RECQL5 11-526 Q345A (human, UniProt O94762 11-526, Q345A); test: as above; settings: protein: recombinant; tags: none (His tag cleaved with TEV); label: 5' fluorescein (FITC) on RQ-1; fork 1:2, 31 bp, RQ-1 5' arm 32 nt, RQ-3 3' arm 30 nt
Chain of RECQL5 11-526 Q345A (O94762 11-526 Q345A): as the sequence (O94762 11-526 R349A) above, with Q335A, A339R counted along it

RECQL5 11-526 D422A = RECQL5 11-526 D422A (human, UniProt O94762 11-526, D422A); test: as above; settings: protein: recombinant; tags: none (His tag cleaved with TEV); label: 5' fluorescein (FITC) on RQ-1; fork 1:2, 31 bp, RQ-1 5' arm 32 nt, RQ-3 3' arm 30 nt
Chain of RECQL5 11-526 D422A (O94762 11-526 D422A): as the sequence (O94762 11-526 R349A) above, with A339R, D412A counted along it

RECQL5 11-609 = RECQL5 11-609 (human, UniProt O94762 11-609); test: as above; settings: protein: recombinant, tags: none (His tag cleaved with TEV)
Chain of RECQL5 11-609 (O94762 11-609): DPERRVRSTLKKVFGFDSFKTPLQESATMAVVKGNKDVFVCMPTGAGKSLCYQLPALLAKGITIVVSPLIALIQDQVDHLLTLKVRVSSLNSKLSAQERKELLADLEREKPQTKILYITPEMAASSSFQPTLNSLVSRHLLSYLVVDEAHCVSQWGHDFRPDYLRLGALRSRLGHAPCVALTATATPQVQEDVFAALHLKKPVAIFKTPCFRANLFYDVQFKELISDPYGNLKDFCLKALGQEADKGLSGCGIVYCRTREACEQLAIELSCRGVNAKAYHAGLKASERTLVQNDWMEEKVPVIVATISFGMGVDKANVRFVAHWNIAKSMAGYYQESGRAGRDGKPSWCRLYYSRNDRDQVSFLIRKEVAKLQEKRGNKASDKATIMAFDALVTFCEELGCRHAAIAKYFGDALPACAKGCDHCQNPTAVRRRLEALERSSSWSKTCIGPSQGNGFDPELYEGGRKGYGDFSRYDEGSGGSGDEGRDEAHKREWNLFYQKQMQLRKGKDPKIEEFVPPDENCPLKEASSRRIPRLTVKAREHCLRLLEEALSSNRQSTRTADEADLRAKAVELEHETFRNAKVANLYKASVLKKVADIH

RECQL5 11-526 F420A = RECQL5 11-526 F420A (human, UniProt O94762 11-526, F420A); test: as above; settings: protein: recombinant; tags: none (His tag cleaved with TEV); label: 5' fluorescein (FITC) on RQ-1; fork 1:2, 31 bp, RQ-1 5' arm 32 nt, RQ-3 3' arm 30 nt
Chain of RECQL5 11-526 F420A (O94762 11-526 F420A): as the sequence (O94762 11-526 R349A) above, with A339R, F410A counted along it

RECQL5 11-526 W165A = RECQL5 11-526 W165A (human, UniProt O94762 11-526, W165A); test: as above; settings: protein: recombinant; tags: none (His tag cleaved with TEV); label: 5' fluorescein (FITC) on RQ-1; fork 1:2, 31 bp, RQ-1 5' arm 32 nt, RQ-3 3' arm 30 nt
Chain of RECQL5 11-526 W165A (O94762 11-526 W165A): as the sequence (O94762 11-526 R349A) above, with W155A, A339R counted along it

RECQL5 11-526 Y419A = RECQL5 11-526 Y419A (human, UniProt O94762 11-526, Y419A); test: as above; settings: protein: recombinant; tags: none (His tag cleaved with TEV); label: 5' fluorescein (FITC) on RQ-1; fork 1:2, 31 bp, RQ-1 5' arm 32 nt, RQ-3 3' arm 30 nt
Chain of RECQL5 11-526 Y419A (O94762 11-526 Y419A): as the sequence (O94762 11-526 R349A) above, with A339R, Y409A counted along it

B1: splayed duplex (RQ-1 + RQ-3) (mixed)
DNA 1: ATCGATAGTCGGATCCTCTAGACAGCTCCATGTAGCAAGGCACTGGTAGAATTCGGCAGCGTC
DNA 2: GACGCTGCCGAATTCTACCAGTGCCTTGCTAGGACATCTTTGCCCACCTGCAGGTTCACCC
RECQL5 11-438
  Kd: 164 ± 34 nM
RECQL5 11-526 R349A
  Kd: 295 ± 29 nM
RECQL5 11-526 H167A
  Kd: 108 ± 5 nM
RECQL5 11-526 D168A
  Kd: 25 ± 2 nM
RECQL5 11-526 R352G
  Kd: 29 ± 2 nM
RECQL5 11-526
  Kd: 51 ± 5 nM
RECQL5 11-453
  Kd: 49 ± 28 nM
RECQL5 11-526 Q345A
  Kd: 85 ± 4 nM
RECQL5 11-526 D422A
  Kd: 38 ± 4 nM
RECQL5 11-609; label: 5' fluorescein (FITC) on RQ-1, fork 1:2, 31 bp, RQ-1 5' arm 32 nt, RQ-3 3' arm 30 nt
  Kd: 29 ± 4 nM
RECQL5 11-526 F420A
  Kd: 45 ± 3 nM
RECQL5 11-526 W165A
  Kd: 169 ± 6 nM
RECQL5 11-526 Y419A
  Kd: 39 ± 10 nM

B2: double stranded (RQ-1 + RQ-2) (dsDNA)
DNA 1: B1 DNA 1
DNA 2: GACGCTGCCGAATTCTACCAGTGCCTTGCTACATGGAGCTGTCTAGAGGATCCGACTATCGAT
RECQL5 11-609; label: 5' fluorescein (FITC) on RQ-1, blunt
  binding result: binds

B3: single stranded (RQ-1) (ssDNA)
DNA: B1 DNA 1
RECQL5 11-609; label: 5' fluorescein (FITC), single strand
  binding result: binds
